For data set [1], the target named is T1, rMBP-pTAC12 (ZmpTAC12) (Zea mays, UniProt B4FZ81 72-555).
T1 sequence: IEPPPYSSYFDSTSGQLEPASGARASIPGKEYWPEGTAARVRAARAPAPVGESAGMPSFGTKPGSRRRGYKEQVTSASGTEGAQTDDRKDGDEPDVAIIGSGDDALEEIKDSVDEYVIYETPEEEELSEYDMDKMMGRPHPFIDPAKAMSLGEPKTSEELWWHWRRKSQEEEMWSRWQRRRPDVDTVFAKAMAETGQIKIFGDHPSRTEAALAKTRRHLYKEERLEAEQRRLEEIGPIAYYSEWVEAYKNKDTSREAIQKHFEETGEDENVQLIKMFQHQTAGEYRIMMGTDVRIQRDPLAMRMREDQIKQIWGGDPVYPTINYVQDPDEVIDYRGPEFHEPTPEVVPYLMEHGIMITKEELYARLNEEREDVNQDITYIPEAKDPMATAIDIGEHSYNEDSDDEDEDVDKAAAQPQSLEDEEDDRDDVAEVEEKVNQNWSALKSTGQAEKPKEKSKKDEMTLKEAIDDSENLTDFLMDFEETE
Briefly: EMSA; c. 100 pM probe; EMSA; 1 ug/ul heparin (ssRNA assays), c. 100 pM radiolabeled 50mer; buffer, salt, pH and temperature not in the material. The settings on record: protein: recombinant; tags: N-terminal MBP fusion; label: 5' end radiolabel (T4 PNK).

The target of data set [2] is T1, rMBP-pTAC12 (ZmpTAC12). As to the kind of experiment: EMSA; 100 pM dsDNA; EMSA; 1 ug/ul heparin (ssRNA assays), c. 100 pM radiolabeled 50mer; buffer, salt, pH and temperature not in the material. The settings on record: protein: recombinant; tags: N-terminal MBP fusion; label: 5' end radiolabel (T4 PNK); blunt. On the technique in general: Mobility shift assays separate free from complexed probe on a gel.

Data set [3] deals with T1, rMBP-pTAC12 (ZmpTAC12). Briefly: EMSA; 1 ug/ul heparin; c. 100 pM probe; EMSA; 1 ug/ul heparin (ssRNA assays), c. 100 pM radiolabeled 50mer; buffer, salt, pH and temperature not in the material. The settings on record: protein: recombinant; tags: N-terminal MBP fusion; label: radiolabeled.

As for TAATTGCTCCAGTGAATAACTAAAAAAAAAAATAGAAGGACGGTAGATAG (ssDNA) [psaAB-150 ssDNA], in data set [1], the binding result was “binds”.

B1: psaAB-150 dsDNA (dsDNA)
DNA 1: TAATTGCTCCAGTGAATAACTAAAAAAAAAAATAGAAGGACGGTAGATAG
DNA 2: CTATCTACCGTCCTTCTATTTTTTTTTTTAGTTATTCACTGGAGCAATTA
In the case of B1, in data set [2], the binding result is “no binding”.

B2: psaAB-150 ssRNA (ssRNA)
RNA: GGUAAUUGCUCCAGUGAAUAACUAAAAAAAAAAAUAGAAGGACGGUAGAUAG
For B2, the binding result in data set [3] was “binds”.

The record behind these values is article PMC6680207, “ZmpTAC12 binds single‐stranded nucleic acids and is essential for accumulation of the plastid‐encoded polymerase complex in maize”.
